Test results published in patent US6518397B1, “Pharmaceuticals for modulating hormone responsiveness” (priority 1995, dated 2003).

Columns and labels:
[1] = test system: calreticulin mRNA in MC3T3 cells; assay: Calreticulin mRNA levels in MC3T3 cells; assay type: cell-based, mouse
Procedure: Calreticulin expression levels in these cell types are determined at the outset by Western blot analysis. In addition to utilizing these stable expression vectors, we construct inducible calreticulin expression sense- and antisense-cDNA expression vectors driven by strong metal inducible promoters (Filmus et al., 1992). The inducible vectors allow us to turn calreticulin expression on or off at will. In the MC3T3 cells, 1,25,dihydroxyvitamin D3 has a proliferative effect on these cells at subconfluency, but when added to confluent, mineralizing cultures, it enhances the mineralization process. The transfected cells are analyzed for the level of calreticulin expression by Western blot analysis as described by us previously as well as by Northern blot analysis for mRNA levels. The effect of up or down regulation of calreticulin is determined in terms of the above mentioned responses to 1,25 dihydroxyvitamin D3. In addition, the effect on the expression of vitamin D responsive genes, such as c-fos and integrin b3 subunit (Xu et al., 1993) is determined by Northern blot and Western blot analysis. […] The luciferase activity in mock transfected versus calreticulin sense- and antisense-cDNA transfected cells (stable and inducible) is then be determined as described by us previously (see Example 6). […]

[2] = biological target: T1, calreticulin as used in the gel mobility shift assays of Examples 7 and 15 (Homo sapiens (Human), UniProt P27797 18-417); assay: gel mobility shift; reversal of calreticulin inhibition of receptor-DNA binding; competitor RXR/RXR, reference RAR/RXR
T1 construct: Could be m1 or m2
T1 sequence: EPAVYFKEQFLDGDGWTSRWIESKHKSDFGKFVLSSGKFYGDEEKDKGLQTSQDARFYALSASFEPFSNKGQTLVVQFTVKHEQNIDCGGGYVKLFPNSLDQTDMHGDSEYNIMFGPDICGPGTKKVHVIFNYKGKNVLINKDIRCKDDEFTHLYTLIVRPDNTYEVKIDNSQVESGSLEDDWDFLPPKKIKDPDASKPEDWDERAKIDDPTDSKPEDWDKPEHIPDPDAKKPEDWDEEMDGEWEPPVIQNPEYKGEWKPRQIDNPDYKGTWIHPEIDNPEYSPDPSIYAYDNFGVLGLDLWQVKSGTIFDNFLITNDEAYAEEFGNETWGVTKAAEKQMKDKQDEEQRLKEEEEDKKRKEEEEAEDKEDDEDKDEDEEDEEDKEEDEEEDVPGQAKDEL
Procedure: (§1) Example 7 Peptides Having Differential Specificities for Disrupting Different Hormone Receptor-Calreticulin Interactions To identify peptides having different specificities, we utilized gel mobility shift assays (see Example 3) in which known concentrations of purified recombinant androgen receptor, estrogen receptor, retinoic acid receptors (RAR/RXR and RXR/RXR) (Shago et al., 1994) and vitamin D receptor (Xu et al., 1993) were incubated with known concentrations of either recombinant calreticulin, or calreticulin purified by affinity chromatography on a KLGFFKR affinity column [SEQ ID NO:7] (see Example 3) in the presence of the respective ^32P-labelled DNA response elements and known concentrations of synthetic peptides based on the KXFFX[1]R [SEQ ID NO:1] sequence. In addition to the linear peptides, some peptides were cyclized by adding cysteine residues at either ends.

[3] = biological target: T1, calreticulin as used in the gel …; assay: gel mobility shift; reversal of calreticulin inhibition of receptor-DNA binding; competitor VDR/RXR, reference RAR/RXR
Procedure: as §1

[4] = biological target: T1, calreticulin as used in the gel …; assay: gel mobility shift, PhosphorImager; reversal of calreticulin inhibition of AR binding to its DNA response element; competitor AR
Procedure: As described in Rennie et al., 1993, DNA binding domain of recombinant rat androgen receptor was prepared as a GST-fusion protein using the pGEX-3X vector and purified by glutathione-agarose affinity chromatography. p60 (calreticulin) was purified by affinity chromatography on KLGFFKR-sepharose [SEQ ID NO:7], followed by gel electrophoresis as described in detail in Rojiani et al., 1991. […] Recombinant calreticulin (GST-fusion protein) was prepared as described by Baksh and Michalak, 1991. Gel retardation assays were carried out as described by Rennie et al., 1993. To analyze the effect of p60, or recombinant calreticulin, on receptor-DNA binding activity, the AR was pre-incubated with p60 for 30 min at 4° C. […] The androgen receptor preparation was then added to these mixtures and further incubated for 30 min at 4° C.
(§2) This Table relates to the retinoic acid receptors (RAR/RXR) and the androgen receptor (AR). […] The data was quantified using a Phosphormager (Molecular Dynamics).

[5] = biological target: T1, calreticulin as used in the gel …; assay: gel mobility shift, PhosphorImager; reversal of calreticulin inhibition of RAR/RXR binding to its DNA response element; competitor RAR/RXR
From the text: as §2

[6] = biological target: T2, DNA binding domain of recombinant rat androgen receptor (AR) / calreticulin (p60) (Homo sapiens, UniProt P27797); assay: Gel mobility shift (gel retardation) assay: calreticulin (p60) inhibition of AR-ARE binding and its reversal by peptides/antibody; details: protein pre-incubated with AR 30 min at 4° C.
T2 construct: endogenous in cells
T2 sequence (P27797 18-417): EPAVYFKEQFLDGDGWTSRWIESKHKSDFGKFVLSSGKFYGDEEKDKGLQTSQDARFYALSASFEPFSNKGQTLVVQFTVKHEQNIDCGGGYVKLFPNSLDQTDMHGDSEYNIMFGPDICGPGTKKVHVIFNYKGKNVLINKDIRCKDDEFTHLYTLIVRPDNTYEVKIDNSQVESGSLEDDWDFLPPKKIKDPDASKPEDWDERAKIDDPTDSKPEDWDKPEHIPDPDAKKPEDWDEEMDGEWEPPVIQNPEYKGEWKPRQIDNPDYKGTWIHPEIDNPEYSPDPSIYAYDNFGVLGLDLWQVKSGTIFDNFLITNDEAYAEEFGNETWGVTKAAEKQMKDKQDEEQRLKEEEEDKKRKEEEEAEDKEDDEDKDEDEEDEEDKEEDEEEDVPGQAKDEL
Procedure: To determine whether p60 (calreticulin) could directly modulate the binding of nuclear hormone receptors to DNA via the KXFFX^1R [SEQ ID NO:1] sequence, the interaction of the DNA binding domain of recombinant androgen receptor with its hormone responsive element was analyzed by carrying out gel mobility shift assays.
As described in Rennie et al., 1993, DNA binding domain of recombinant rat androgen receptor was prepared as a GST-fusion protein using the pGEX-3X vector and purified by glutathione-agarose affinity chromatography. p60 (calreticulin) was purified by affinity chromatography on KLGFFKR-sepharose [SEQ ID NO:7], followed by gel electrophoresis as described in detail in Rojiani et al., 1991. […] Recombinant calreticulin (GST-fusion protein) was prepared as described by Baksh and Michalak, 1991. Gel retardation assays were carried out as described by Rennie et al., 1993. To analyze the effect of p60, or recombinant calreticulin, on receptor-DNA binding activity, the AR was pre-incubated with p60 for 30 min at 4° C. To analyze the effects of synthetic peptides, anti-calreticulin antibody, and non-immune IgG on p60 inhibition of AR-ARE binding, the peptide, antibody or IgG were pre-incubated with p60 for 30 min at 4° C. The androgen receptor preparation was then added to these mixtures and further incubated for 30 min at 4° C.
Affinity purified DNA binding domain of the recombinant rat androgen receptor (AR) was pre-incubated with or without the indicated concentrations of purified p60 at 4° C. for 30 min. After this pre-incubation the reaction mixtures were incubated with ^32P-labeled 26 base pair ARE (Rennie et al., 1993) (androgen response element), and analyzed by gel retardation assay. The sequence of the ARE used was [SEQ ID NO:28]:
Amino acids in the KXFFX^1R [SEQ ID NO: 1] sequence were modified. Androgen receptor and calreticulin were incubated in the presence of the modified peptides and allowed to interact with an oligonucleotide containing the androgen response element (the method of this assay is described in Example 3). The interaction was analyzed by gel mobility shaft assay (FIGS. 5A-5C).

AP-1 = assay: Binding of AP-1 to DNA

Molecule: C=C1/C(=C\C=C2/CCC[C@]3(C)[C@@H]([C@H](C)CCCC(C)(C)O)CC[C@@H]23)C[C@@H](O)C[C@@H]1O [1,25,dihydroxyvitamin D3]
- Calreticulin mRNA levels [1]: upregulates calreticulin mRNA levels

B1: KLGFFKR synthetic peptide (peptide)
peptide: KLGFFKR
notes: Used free in solution and immobilised on sepharose; also called KLGFFKR-sepharose
- fold potency against RXR/RXR compared to RAR/RXR [2]: 4 fold
- fold potency against VDR/RXR compared to RAR/RXR [3]: 10 fold
- % Reversal [4]: 62%
- % Reversal [5]: 100%

B2: p60 (calreticulin): 60 kDa protein, calreticulin, purified by affinity chromatography on KLGFFKR-sepharose (protein)
chain: EPAVYFKEQFLDGDGWTSRWIESKHKSDFGKFVLSSGKFYGDEEKDKGLQTSQDARFYALSASFEPFSNKGQTLVVQFTVKHEQNIDCGGGYVKLFPNSLDQTDMHGDSEYNIMFGPDICGPGTKKVHVIFNYKGKNVLINKDIRCKDDEFTHLYTLIVRPDNTYEVKIDNSQVESGSLEDDWDFLPPKKIKDPDASKPEDWDERAKIDDPTDSKPEDWDKPEHIPDPDAKKPEDWDEEMDGEWEPPVIQNPEYKGEWKPRQIDNPDYKGTWIHPEIDNPEYSPDPSIYAYDNFGVLGLDLWQVKSGTIFDNFLITNDEAYAEEFGNETWGVTKAAEKQMKDKQDEEQRLKEEEEDKKRKEEEEAEDKEDDEDKDEDEEDEEDKEEDEEEDVPGQAKDEL
- Effect of protein on AR-ARE (receptor-DNA) complex formation [6]: dose-dependent inhibition in the formation of this complex
- Effect on binding of AP-1 to DNA (AP-1): did not effect the binding of AP-1 to DNA
